Measured values reported in the supplement of paper PMC10065799, “High-throughput profiling of sequence recognition by tyrosine kinases and SH2 domains using bacterial peptide display” (eLife, 2023).

Legend:
c-Abl (mouse) = experiment: phosphorylation enrichment, bacterial display (enrichment ratio); higher = better substrate or ligand; peptides without Tyr show the background
FGFR1 = FGFR1 (UniProt P11362); experiment: as above
MERTK = MERTK (UniProt Q12866); experiment: as above
Fes = Fes (UniProt P07332); experiment: as above
Sequence of Fes (P07332 whole entry, looked up): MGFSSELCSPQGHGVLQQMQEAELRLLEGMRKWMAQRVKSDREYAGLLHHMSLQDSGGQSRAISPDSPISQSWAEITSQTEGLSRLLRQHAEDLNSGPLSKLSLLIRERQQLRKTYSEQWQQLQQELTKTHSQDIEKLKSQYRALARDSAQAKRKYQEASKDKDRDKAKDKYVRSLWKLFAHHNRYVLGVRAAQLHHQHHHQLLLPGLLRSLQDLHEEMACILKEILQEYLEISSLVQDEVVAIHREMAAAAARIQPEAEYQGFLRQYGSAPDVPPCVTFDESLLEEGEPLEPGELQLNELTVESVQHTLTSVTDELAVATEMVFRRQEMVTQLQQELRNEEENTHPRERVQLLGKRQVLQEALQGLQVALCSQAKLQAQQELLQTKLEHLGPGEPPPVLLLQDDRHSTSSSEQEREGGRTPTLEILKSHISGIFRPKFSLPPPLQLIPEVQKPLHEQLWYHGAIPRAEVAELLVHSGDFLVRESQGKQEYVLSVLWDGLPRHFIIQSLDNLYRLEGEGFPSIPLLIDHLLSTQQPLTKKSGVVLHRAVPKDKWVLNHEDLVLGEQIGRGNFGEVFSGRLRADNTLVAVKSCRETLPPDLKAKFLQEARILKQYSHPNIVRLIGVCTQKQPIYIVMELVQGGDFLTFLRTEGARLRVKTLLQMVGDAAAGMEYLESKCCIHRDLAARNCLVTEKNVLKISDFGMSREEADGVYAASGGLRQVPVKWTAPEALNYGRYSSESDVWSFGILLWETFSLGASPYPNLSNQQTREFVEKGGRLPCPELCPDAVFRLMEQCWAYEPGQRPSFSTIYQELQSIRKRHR

Fyn = Fyn (UniProt P06241); experiment: as above
FGFR3 = FGFR3 (UniProt P22607); experiment: as above
Sequence of FGFR3 (P22607 whole entry, looked up): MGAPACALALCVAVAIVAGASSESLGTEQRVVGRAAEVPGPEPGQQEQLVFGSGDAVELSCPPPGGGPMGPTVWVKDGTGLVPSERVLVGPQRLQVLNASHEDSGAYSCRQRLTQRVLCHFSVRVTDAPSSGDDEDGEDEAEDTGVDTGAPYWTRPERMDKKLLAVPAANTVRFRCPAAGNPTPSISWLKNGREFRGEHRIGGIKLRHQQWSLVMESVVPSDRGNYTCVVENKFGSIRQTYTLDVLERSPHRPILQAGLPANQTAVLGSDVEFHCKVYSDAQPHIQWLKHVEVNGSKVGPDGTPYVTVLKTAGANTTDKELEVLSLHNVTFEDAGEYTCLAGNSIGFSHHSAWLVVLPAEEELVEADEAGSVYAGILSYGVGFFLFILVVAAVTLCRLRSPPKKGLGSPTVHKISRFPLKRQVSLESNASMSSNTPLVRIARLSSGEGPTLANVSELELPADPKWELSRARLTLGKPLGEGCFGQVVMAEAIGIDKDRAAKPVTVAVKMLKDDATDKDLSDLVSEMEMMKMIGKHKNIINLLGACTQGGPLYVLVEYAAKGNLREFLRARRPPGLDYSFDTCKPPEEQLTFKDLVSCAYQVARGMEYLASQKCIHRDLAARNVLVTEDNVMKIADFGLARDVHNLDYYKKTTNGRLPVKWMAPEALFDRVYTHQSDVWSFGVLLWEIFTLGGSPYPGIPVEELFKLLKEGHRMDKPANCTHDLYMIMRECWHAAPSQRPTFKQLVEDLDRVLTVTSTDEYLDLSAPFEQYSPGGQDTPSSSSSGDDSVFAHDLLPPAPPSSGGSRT

EPHB2 = EPHB2 (UniProt P29323); experiment: as above
Sequence of EPHB2 (P29323 whole entry, looked up): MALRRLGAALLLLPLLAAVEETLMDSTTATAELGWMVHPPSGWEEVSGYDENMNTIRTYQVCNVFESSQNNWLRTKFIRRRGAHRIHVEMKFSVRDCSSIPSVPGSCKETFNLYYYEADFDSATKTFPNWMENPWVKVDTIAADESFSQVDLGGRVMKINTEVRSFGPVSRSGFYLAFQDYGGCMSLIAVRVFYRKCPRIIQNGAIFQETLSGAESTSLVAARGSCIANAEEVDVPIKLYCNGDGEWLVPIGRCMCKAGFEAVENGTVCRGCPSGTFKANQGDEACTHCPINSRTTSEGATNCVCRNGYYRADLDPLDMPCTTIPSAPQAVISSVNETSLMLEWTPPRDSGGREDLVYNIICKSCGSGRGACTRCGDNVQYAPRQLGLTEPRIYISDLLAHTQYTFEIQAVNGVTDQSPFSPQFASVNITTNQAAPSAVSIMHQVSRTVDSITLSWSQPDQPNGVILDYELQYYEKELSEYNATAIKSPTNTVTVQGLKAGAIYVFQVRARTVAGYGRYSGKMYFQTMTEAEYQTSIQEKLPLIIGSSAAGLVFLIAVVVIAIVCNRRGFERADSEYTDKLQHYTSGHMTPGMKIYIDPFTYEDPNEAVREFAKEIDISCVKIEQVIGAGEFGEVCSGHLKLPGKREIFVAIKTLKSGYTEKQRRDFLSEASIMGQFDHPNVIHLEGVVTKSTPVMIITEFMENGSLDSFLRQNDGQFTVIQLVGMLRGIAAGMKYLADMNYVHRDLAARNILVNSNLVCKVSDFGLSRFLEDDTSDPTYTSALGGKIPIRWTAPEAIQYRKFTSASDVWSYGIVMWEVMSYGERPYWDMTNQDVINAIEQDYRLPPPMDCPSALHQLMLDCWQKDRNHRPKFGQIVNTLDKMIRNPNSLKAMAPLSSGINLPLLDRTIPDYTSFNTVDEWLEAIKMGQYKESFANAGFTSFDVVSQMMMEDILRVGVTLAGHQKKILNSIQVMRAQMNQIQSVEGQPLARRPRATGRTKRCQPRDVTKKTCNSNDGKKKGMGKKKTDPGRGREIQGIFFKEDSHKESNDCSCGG

Fer (mouse) = experiment: as above
Jak2 = Jak2 (UniProt O60674); experiment: as above
Sequence of Jak2 (O60674 whole entry, looked up): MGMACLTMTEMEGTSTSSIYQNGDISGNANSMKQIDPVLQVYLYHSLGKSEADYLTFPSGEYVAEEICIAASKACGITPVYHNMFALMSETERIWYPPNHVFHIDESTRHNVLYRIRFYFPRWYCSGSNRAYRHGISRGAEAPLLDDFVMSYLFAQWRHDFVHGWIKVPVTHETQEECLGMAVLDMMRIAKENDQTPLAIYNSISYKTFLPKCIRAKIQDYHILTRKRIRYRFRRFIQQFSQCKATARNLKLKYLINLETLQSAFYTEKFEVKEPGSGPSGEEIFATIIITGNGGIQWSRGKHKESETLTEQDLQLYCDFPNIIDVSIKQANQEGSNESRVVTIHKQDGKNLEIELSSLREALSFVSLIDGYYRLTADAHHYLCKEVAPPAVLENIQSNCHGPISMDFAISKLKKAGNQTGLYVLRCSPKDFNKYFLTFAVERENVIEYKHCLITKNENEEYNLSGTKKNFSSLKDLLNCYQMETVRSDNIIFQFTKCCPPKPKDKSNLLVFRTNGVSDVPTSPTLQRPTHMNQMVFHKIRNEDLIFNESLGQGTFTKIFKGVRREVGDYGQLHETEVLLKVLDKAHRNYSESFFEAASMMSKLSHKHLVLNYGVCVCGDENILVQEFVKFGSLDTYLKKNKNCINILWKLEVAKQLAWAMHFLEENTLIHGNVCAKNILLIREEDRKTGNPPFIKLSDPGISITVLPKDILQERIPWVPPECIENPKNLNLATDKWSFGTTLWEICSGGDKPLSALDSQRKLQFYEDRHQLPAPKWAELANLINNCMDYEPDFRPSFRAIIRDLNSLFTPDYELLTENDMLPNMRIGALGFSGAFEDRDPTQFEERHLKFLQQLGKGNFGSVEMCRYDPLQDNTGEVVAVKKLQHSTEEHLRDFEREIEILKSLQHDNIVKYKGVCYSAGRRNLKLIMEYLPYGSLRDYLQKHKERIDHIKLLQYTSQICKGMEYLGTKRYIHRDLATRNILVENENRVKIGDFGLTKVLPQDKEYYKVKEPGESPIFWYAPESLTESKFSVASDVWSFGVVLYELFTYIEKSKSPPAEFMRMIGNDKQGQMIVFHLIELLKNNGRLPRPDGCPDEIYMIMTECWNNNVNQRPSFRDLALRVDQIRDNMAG

AncSZ = experiment: as above
c-Src = experiment: as above
EPHB1 = EPHB1 (UniProt P54762); experiment: as above
Sequence of EPHB1 (P54762 whole entry, looked up): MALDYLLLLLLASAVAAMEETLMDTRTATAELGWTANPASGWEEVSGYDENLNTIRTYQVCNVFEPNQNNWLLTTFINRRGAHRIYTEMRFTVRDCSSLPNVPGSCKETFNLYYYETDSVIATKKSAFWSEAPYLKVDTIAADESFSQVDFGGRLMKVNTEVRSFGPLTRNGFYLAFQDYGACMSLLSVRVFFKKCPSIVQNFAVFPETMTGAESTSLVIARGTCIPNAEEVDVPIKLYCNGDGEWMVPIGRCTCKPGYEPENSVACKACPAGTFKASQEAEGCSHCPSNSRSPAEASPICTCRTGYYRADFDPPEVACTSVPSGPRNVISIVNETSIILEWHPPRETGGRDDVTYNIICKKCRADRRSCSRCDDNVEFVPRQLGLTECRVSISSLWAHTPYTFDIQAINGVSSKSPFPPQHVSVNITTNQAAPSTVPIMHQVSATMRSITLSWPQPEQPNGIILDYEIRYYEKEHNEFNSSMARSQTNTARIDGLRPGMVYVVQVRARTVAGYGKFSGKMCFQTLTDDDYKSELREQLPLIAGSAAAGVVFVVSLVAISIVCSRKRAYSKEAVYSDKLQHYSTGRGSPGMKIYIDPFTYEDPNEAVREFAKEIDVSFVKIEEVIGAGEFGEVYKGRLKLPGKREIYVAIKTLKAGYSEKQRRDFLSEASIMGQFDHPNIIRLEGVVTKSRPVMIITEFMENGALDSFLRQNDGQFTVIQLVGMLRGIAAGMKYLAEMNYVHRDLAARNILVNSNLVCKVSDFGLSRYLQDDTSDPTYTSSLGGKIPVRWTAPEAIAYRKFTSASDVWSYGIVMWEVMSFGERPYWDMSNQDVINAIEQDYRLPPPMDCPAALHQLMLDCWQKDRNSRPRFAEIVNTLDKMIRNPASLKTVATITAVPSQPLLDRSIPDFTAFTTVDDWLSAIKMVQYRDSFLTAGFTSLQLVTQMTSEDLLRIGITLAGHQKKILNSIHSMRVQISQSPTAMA

Hck = Hck (UniProt P08631); experiment: as above
Grb2 SH2 = Grb2 SH2 (UniProt P62993); experiment: SH2 binding enrichment of the phosphorylated peptide, bacterial display (enrichment ratio); higher = better substrate or ligand; peptides without Tyr show the background
c-Src SH2 = experiment: as above
SHP2-C SH2 = experiment: as above
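For SH2 binding enrichment of the phosphorylated peptide, bacterial display in this document: peptide library displayed on the E. coli surface as eCPX fusions, selected cells deep-sequenced, score is each peptide's frequency after selection divided by its frequency in the input.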
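For phosphorylation enrichment, bacterial display in this document: 11-residue human phosphosite peptides and single-mutation variants displayed on the E. coli surface, counted by deep sequencing, each peptide's frequency after selection divided by its frequency in the unselected input library; frequency after pTyr selection over input frequency; kinase dosed for 20-30% of maximal phosphorylation in three min.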

Row | Sequence | SH2 binding enrichment (Grb2 SH2) | SH2 binding enrichment (c-Src SH2) | SH2 binding enrichment (SHP2-C SH2) | phosphorylation enrichment (c-Abl (mouse)) | phosphorylation enrichment (FGFR1) | phosphorylation enrichment (MERTK) | phosphorylation enrichment (Fes) | phosphorylation enrichment (Fyn) | phosphorylation enrichment (FGFR3) | phosphorylation enrichment (EPHB2) | phosphorylation enrichment (Fer (mouse)) | phosphorylation enrichment (Jak2) | phosphorylation enrichment (AncSZ) | phosphorylation enrichment (c-Src) | phosphorylation enrichment (EPHB1) | phosphorylation enrichment (Hck)
1 | PYYASYPPSPD [GDAP2_Y491_T489A] | 0.709 | 1 | 0.579 | 4.3 | 4.96 | 11.2 | 1.15 | 10.7 | 3.53 | 17.7 | 0.915 | 1.25 | 1.41 | 7.56 | 10.8 | 4.78
2 | QEGPEYWDQNT [HLA-A_Y83_E87N] | 0.834 | 0.419 | 0.702 | 1.25 | 0.711 | 0.625 | 1.42 | 0.6 | 1.14 | 0.719 | 0.802 | 1.36 | 1.5 | 0.546 | 0.898 | 0.632
3 | QFLMKYVRSAS [ABCD1_Y337_W339R] | 0.517 | 0.369 | 0.927 | 0.82 | 0.431 | 0.476 | 1.05 | 0.605 | 0.873 | 0.666 | 0.559 | 1.2 | 0.995 | 0.799 | 0.673 | 0.566
4 | QGLRLYRPHLP [BTK_Y617_A622P] | 0.816 | 0.781 | 1.34 | 0.712 | 0.48 | 0.512 | 0.857 | 0.401 | 0.408 | 0.568 | 0.606 | 0.967 | 0.772 | 0.419 | 0.444 | 0.522
5 | QGLRLYRTHLA [BTK_Y617_P619T] | 1.34 | 1.08 | 1.31 | 0.448 | 0.306 | 0.333 | 0.478 | 0.339 | 0.365 | 0.486 | 0.42 | 0.577 | 0.509 | 0.312 | 0.359 | 0.317
6 | QKKEEYKMALY [F8_Y1990_R1985Q] | 0.629 | 0.48 | 0.565 | 0.902 | 0.527 | 0.693 | 1.41 | 0.603 | 0.582 | 0.626 | 0.895 | 1.63 | 1.72 | 0.978 | 0.984 | 0.496
7 | QRAADYYSQQM [GBP6_Y333] | 0.887 | 0.56 | 0.608 | 0.591 | 2.32 | 0.813 | 1.53 | 1.42 | 1.75 | 1.14 | 0.579 | 0.728 | 1.29 | 0.524 | 0.933 | 0.611
8 | QRKPSYNQLPS [BRCA2_Y71_A75P] | 0.858 | 0.423 | 0.648 | 1.08 | 0.557 | 0.567 | 0.767 | 0.599 | 0.598 | 0.522 | 0.536 | 0.72 | 0.886 | 0.682 | 0.449 | 0.691
9 | QSSALYEDHYL [ASS1_Y83_R86H] | 0.881 | 0.524 | 0.54 | 0.734 | 0.477 | 1.33 | 1.18 | 0.904 | 0.702 | 2.07 | 18.5 | 1.18 | 1.24 | 1.14 | 5.41 | 1.58
10 | QWPGPYDRPGA [HNRNPH2_Y210_R206W] | 0.885 | 1.33 | 0.789 | 0.681 | 0.602 | 0.541 | 0.928 | 0.636 | 0.798 | 0.513 | 0.858 | 0.719 | 0.646 | 0.54 | 0.416 | 0.73
11 | RAIDMYLMGCF [GABRB2_Y308_K303R] | 0.886 | 0.332 | 0.572 | 1.58 | 0.777 | 0.601 | 1.79 | 0.907 | 1.19 | 0.706 | 0.799 | 1.83 | 1.87 | 1.29 | 0.848 | 0.888
12 | RAILDYIASKY [GSTA3_Y74_N73D] | 1.06 | 0.746 | 0.872 | 0.616 | 0.512 | 0.473 | 0.761 | 0.564 | 0.661 | 0.646 | 0.665 | 0.718 | 0.867 | 0.376 | 0.456 | 0.471
13 | RALRHYYKLNI [ETV6_Y401] | 2.09 | 1.47 | 1.17 | 0.371 | 1.46 | 0.763 | 0.606 | 0.685 | 1.03 | 0.415 | 0.402 | 0.504 | 1.07 | 0.201 | 1.29 | 0.95
14 | RASDFYSQQMA [GBP6_Y334_A331S_YF] | 0.739 | 0.649 | 0.575 | 0.738 | 0.444 | 0.957 | 0.682 | 0.423 | 0.605 | 0.683 | 0.37 | 0.688 | 0.755 | 0.675 | 0.708 | 0.539

More lines, main results first:

Row | SH2 binding enrichment (Grb2 SH2) | SH2 binding enrichment (c-Src SH2) | SH2 binding enrichment (SHP2-C SH2) | Sequence | phosphorylation enrichment (c-Abl (mouse)) | phosphorylation enrichment (FGFR1) | phosphorylation enrichment (MERTK) | phosphorylation enrichment (Fes) | phosphorylation enrichment (Fyn) | phosphorylation enrichment (FGFR3) | phosphorylation enrichment (EPHB2) | phosphorylation enrichment (Fer (mouse)) | phosphorylation enrichment (Jak2) | phosphorylation enrichment (AncSZ) | phosphorylation enrichment (c-Src) | phosphorylation enrichment (EPHB1) | phosphorylation enrichment (Hck)
15 | 0.816 | 0.561 | 0.69 | QDEPTYARSSK [PEAK1_Y616_H611Q] | 0.738 | 0.603 | 0.513 | 0.869 | 0.554 | 0.508 | 0.498 | 0.466 | 0.685 | 0.787 | 0.661 | 0.389 | 0.838
16 | 0.838 | 0.429 | 0.617 | QHNPEYVQQAT [LRRC7_Y1058_S1063T] | 0.517 | 0.505 | 0.238 | 0.799 | 0.422 | 0.553 | 0.455 | 0.461 | 0.985 | 0.612 | 0.284 | 0.425 | 0.491
17 | 0.469 | 0.376 | 0.573 | QKINNYLTVPA [SLC9A1_Y683] | 0.833 | 0.758 | 0.65 | 0.727 | 0.508 | 0.445 | 0.706 | 0.497 | 0.615 | 0.618 | 0.524 | 1.34 | 0.689
18 | 0.776 | 0.447 | 0.604 | QKMADYSNKLY [PDPR_Y104] | 0.555 | 0.436 | 0.535 | 0.717 | 0.515 | 0.735 | 0.455 | 0.435 | 0.579 | 0.61 | 0.509 | 0.492 | 0.692
19 | 0.83 | 2.03 | 1.07 | QLQQAYQEAFE [YWHAZ_Y149_S145L] | 1.6 | 1.76 | 1.29 | 2.69 | 1.23 | 3.04 | 1.69 | 1.72 | 1.77 | 2.59 | 1.12 | 1.43 | 1.67
20 | 1.29 | 0.384 | 0.659 | QMIETYFDFRL [NSMF_Y506] | 1.62 | 7.65 | 2.65 | 2.56 | 6.04 | 5.67 | 1.36 | 0.622 | 6.57 | 2.67 | 8.42 | 3.62 | 5.25
21 | 1.02 | 0.455 | 0.878 | QMWLKYSQSDL [SMC1A_Y714_R711W] | 1.11 | 0.701 | 0.505 | 1.8 | 0.485 | 1.08 | 0.562 | 0.512 | 1.27 | 1.67 | 0.668 | 0.637 | 0.546
22 | 0.997 | 0.505 | 0.733 | QNAGDYFDLFG [PTPN11_Y62_T59A_YF] | 1.44 | 25.5 | 1.71 | 1.57 | 0.516 | 24.5 | 16.2 | 0.681 | 13.4 | 6.62 | 1.2 | 21.9 | 1.02
23 | 0.851 | 3.3 | 0.898 | QNTGNYYDLYG [PTPN11_Y62_D61N] | 1.28 | 22.8 | 13.2 | 1.65 | 9.62 | 20.6 | 28.7 | 3.81 | 2.99 | 2.38 | 5.18 | 30.6 | 8.01
24 | 0.912 | 0.624 | 0.725 | QNVADYMRCLM [RPL5_Y207_Y210C] | 0.911 | 0.753 | 0.42 | 1.62 | 0.729 | 0.969 | 0.801 | 0.797 | 1.37 | 1.68 | 0.444 | 1.03 | 0.652
25 | 0.958 | 1.31 | 0.59 | QQLDKYQELLD [LMNA_Y359_E358K] | 0.789 | 0.715 | 0.446 | 0.995 | 0.485 | 0.783 | 0.806 | 0.452 | 1.33 | 1.26 | 0.453 | 0.889 | 0.441
26 | 0.924 | 0.599 | 0.775 | QRNEEYCLLDS [ITK_Y198_R193Q] | 1.67 | 1.74 | 0.861 | 2.35 | 0.735 | 1.37 | 0.995 | 0.862 | 1.85 | 1.7 | 0.963 | 1.11 | 0.707
27 | 0.836 | 0.623 | 0.761 | QSHKVYFQHLL [POR_Y604_V605F] | 0.991 | 0.622 | 0.725 | 1.52 | 0.473 | 0.915 | 0.503 | 0.698 | 1.22 | 1.14 | 0.663 | 0.671 | 0.598
28 | 0.979 | 0.665 | 1 | QSHKVYVQHLL [POR_Y604] | 0.806 | 0.867 | 0.594 | 0.971 | 0.908 | 0.977 | 0.572 | 0.742 | 0.798 | 0.919 | 0.618 | 0.444 | 0.858
29 | 0.724 | 1.35 | 1.71 | QSKGIYYVQLE [MGAT4B_Y262] | 1.1 | 3.51 | 8.64 | 1.42 | 2.5 | 3 | 0.872 | 0.763 | 1.47 | 1.21 | 3.33 | 1.12 | 2.22
30 | 0.71 | 0.721 | 0.634 | QTEGEYSSLEH [IDH3B_Y171] | 1.94 | 0.995 | 0.556 | 1.82 | 0.886 | 0.874 | 1.01 | 0.836 | 1.64 | 1.79 | 1.26 | 0.91 | 1.04
31 | 0.735 | 0.467 | 0.746 | RAIELYNDKEK [OTULIN_Y244] | 0.845 | 0.923 | 0.54 | 1.51 | 0.558 | 0.924 | 0.821 | 0.657 | 1.69 | 1.52 | 0.747 | 0.73 | 1.08
32 | 0.663 | 0.572 | 0.536 | RARIRYAQEHD [NSD1_Y1987] | 0.706 | 0.689 | 0.627 | 0.885 | 0.757 | 0.625 | 1.19 | 0.737 | 0.691 | 1.12 | 0.636 | 0.727 | 0.85
33 | 1.01 | 1.11 | 1.03 | RASQEYHIVKK [PDZD2_Y557_S552R] | 0.841 | 0.881 | 0.356 | 1.08 | 0.289 | 0.784 | 0.471 | 0.571 | 1.06 | 0.772 | 0.643 | 0.754 | 0.607
